The nanobody polyreactivity screen of Harvey et al. (2022)

Assay: yeast display, Sf9 membrane polyspecificity reagent, FACS + sequencing; frameworks hold sequencing errors
Procedure, shortened: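 Genes from sorted yeast were amplified by colony PCR, read by MiSeq 2 × 250 sequencing and filtered on CDR length. These cells carried a synthetic nanobody library in Saccharomyces cerevisiae BJ5465 and were sorted by FACS into low and high (top ~1%) gates on anti-HA and streptavidin fluorescence. Polyreactivity is labelled according to the gate of origin.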

Question: With “QVQLVESGGGLVQAGGSLRLSCAASGRIIYIYAMGWYRQAPGKERELVAAITASSGSTNYADSVKGRFTISRDNAKNTVYLQLNSLKPEDTAVYYCAAAPSRTLLRQSKYYYWGQGTQVTVSS” as the sequence, how does the “polyreactivity (PSR sort gate)” value read?
Answer: low polyreactivity

Question: For “QDQLVESGGGLVQAGGSLRLSCAASGRIIQYYDMGWYRQAPGKERELVAAITSNGGRTYYADSVKGRFTISRDNAKNTVFLLMNILKPEDTAVYYCAKTFDFSAYPPLTLKYGYWGQGTQVTVSS”, which “polyreactivity (PSR sort gate)” value is on record?
Answer: high polyreactivity

Question: For “QVQLVESGGGLVQAGGSLRLSCAPTGFIFFTYAMGWYRQAPGKERELVAAISQSGASTYYADSVKGRFTISRDNAKKTVYLQMNSLKPEDSAVDYCAATYSFRYWIQRYNYWGQGTQVTVSS”, which “polyreactivity (PSR sort gate)” value is on record?
Answer: low polyreactivity

Question: Which “polyreactivity (PSR sort gate)” value does the source give for “QVQLVESGGGLVQAGGSLRLSCAASGFTFDYNAMGWYRQAPGKERELVASIDQSGGSTYYADSVKGRFTISRDNAKNTVYLQMNSLKPEDTAVYYCAAEGYYTSTYDLYDYYYWGQGTQVTVSS” here?
Answer: low polyreactivity

Question: For “QVQLVESGGGLVQAGGSLRLSCAASGLIFPVYAMGWYRQAPGKDREFVASIWRGGTTYYADSVKGRFTISRDNAKNTVYLQMNSLKPEDTAVYYCAAVVYSRGYYWGQGTQVTVSS”, which “polyreactivity (PSR sort gate)” value is on record?
Answer: high polyreactivity

Question: With “QVQLVESGGGLVQAGGSLRLSCAASGRTSNVYAMGWYRQAPGKERELVAAISSRDGTTYYADSVKGRFTISRDNAKNTVYLQMNSLKPEDTAVYYCAAAVLSYADYYYDYEYWGQGTQVTVSS” as the sequence, how does the “polyreactivity (PSR sort gate)” value read?
Answer: high polyreactivity

Question: For “QVQLVESGGGLVQAGGSLRLSCAASGRIFLHYAMGWYRQAPGKERELVAAISRSGGSTYYADSVKGRFTISRDNAKNTVYLQMNSLKPEDTAVYYCAAAYPFKTTEGYYYWGQGTQVTVSS”, which “polyreactivity (PSR sort gate)” value is on record?
Answer: high polyreactivity

Question: Which “polyreactivity (PSR sort gate)” value does the source give for “QVQLVESGGGLVQAGGRLRLRCAASGHIFYYYTLGWYRQAPGKERELVAGITIGGSTNYADSVKGRFTISRDNAKNTVYLQMNSLKPEDTAVYYCNVVKYVYIYSYWEYYYWGQGTQVTVSS” here?
Answer: low polyreactivity

Question: Which “polyreactivity (PSR sort gate)” value does the source give for “QVQLVESGGGLVQAGGSLRLSCAASGLIFSEYAMGWSRQAPGKETELVADIRSDGGSTYYADSVKGRFTISRDNAKNTVYLQINSLKPEDTAVYYCNAPYRRSAKFRRYGYDYWGQGTQVTVSS” here?
Answer: high polyreactivity

Question: With “QVQLVESGGGLVQAGGSLRLSCAASGLTFNDYAMGWYRQAPGKERELVAAISDIGGGTYYADSVKGRFTISRDNAKNTVYLQMNSLKPEETAVYYCAAEWQDWYGVDSWGQGTQVTVSS” as the sequence, how does the “polyreactivity (PSR sort gate)” value read?
Answer: low polyreactivity

Question: For “QVQLVESGGGLVQAGASLRLSCAASGSIFYDNAMGWYRQAPGKERELVASIRWSGDSTYYADSVKGRITISRDNAKNTVYLQMNSLKPEDTAVYYCAADPVEPYFTAIAYDYWGQGTQVTVSS”, which “polyreactivity (PSR sort gate)” value is on record?
Answer: low polyreactivity

Question: For “QVQLQESCGGLVQAGGCLRLSCAASGTIFDPDYMGWYHQAPCKERELVASISLGRITYYADSVKGRFTINRDNAKNTVYLQMNSLKPEDTAVYYCAVRVETIYYYSYWGQGTQVTVRS”, which “polyreactivity (PSR sort gate)” value is on record?
Answer: high polyreactivity

Question: For “QVQLVESGGGLVQAGGSLRLSCAASGFIFGGYAMGWSRQAPGKERELVAAISRSGGSTYYADSVKGRFTISRDNAKNTVYLQMNSLKPEDTAVYYCNAVPRRQGFNYWGQGTQVTVSS”, which “polyreactivity (PSR sort gate)” value is on record?
Answer: high polyreactivity

Question: With “QVQLVESGGGLVQAGGSLRLSCAASGSIFRYYAMGWYRQAPGKERELVATISSSGGTTYYADSVKGRFTISRDNAKNTVYLQMNSLKPEETAVYYCAALWTWHVSYPVHEYDFWGQGTQVTVSS” as the sequence, how does the “polyreactivity (PSR sort gate)” value read?
Answer: low polyreactivity

Question: With “QVQLVESGGGLVQAGGSLRLSCAASGSIIFVNAMGWYRQAPGKERELVADISSGGSTNYADSVKGRFTISRDNAKNTVYLLMNSLKPEDTAVYYCNTDEPPIYERFPYDYWGQGTQVNVSS” as the sequence, how does the “polyreactivity (PSR sort gate)” value read?
Answer: low polyreactivity

Question: For “QVQLVESGGGLVKAGGSLRLSCAASGLNFNRYTMGWNRQAPGKERELVAVIDCSGGSTRYADSVKGRFTISRDNAKNTVDLQMNSLKPEDTAVYYCDYYWAQGTQVTVSS”, which “polyreactivity (PSR sort gate)” value is on record?
Answer: low polyreactivity

Question: For “QVQLVESGGGLVQAGGSLRLSCAASGRTFGVYAMGWYRQAPWKERELVAGIRWRGGSTYYADSVKGRFTISRDNAKNTVYLQMNSLKPEDTAVYYCAADVYLVKYDYWGQGTQVTVSS”, which “polyreactivity (PSR sort gate)” value is on record?
Answer: low polyreactivity

Question: For “QVQLVESGGGLVQAGGSLRLSCAASGSIFSSNTMGWYRQAHGKERELVAAITVSGGRTYYADSVKGRFTISRDNAKNTVYLQMNSLKPEDTAVYYCATRWFGNSYSYRAYDYWGQGTQVTVSS”, which “polyreactivity (PSR sort gate)” value is on record?
Answer: high polyreactivity

Question: Which “polyreactivity (PSR sort gate)” value does the source give for “QVQLVESGGGLVQAGGSLRLSCAASGGTFIRYAMALYRQAPGKERELVADITSSGDSTYYADSVKGRFTISRDNAKNTVYLPMNSLITEDTAVYYCATTHDYWLWGMGYWGQGTQVTVSS” here?
Answer: high polyreactivity

Question: Which “polyreactivity (PSR sort gate)” value does the source give for “QVQLVESGGGLVQAGGSLRLSCAASGRTFSWYAMGWYRQAPGKERELVAAITRDGGNTYYADSVKGRFTISRDNAKNTVYLQMNSLKPEDTAVYYCAAAPTTGKRPGYYYWGQGTQVTVSS” here?
Answer: high polyreactivity

Question: With “QVQLVESGGGLVQAGGSLRLSCAASGITFERNAMGWYRQAPGKERELVAAITGRGTSTYADSVKGRFTISRDNAKNTVYLQMNSLKPEDTAVYYCAAVGWFADFLFSDINGYYWGQGTQVTVSS” as the sequence, how does the “polyreactivity (PSR sort gate)” value read?
Answer: low polyreactivity

Question: For “QVQLVESGGGIVQAGGSLRLSCASSGLIFKFYAMGWYRQAPGKERELVASIRRSGDNTYYADSVKRRFTISRDNAKNTVYLQMKSLKPEDTAVYYCAAELLYDYVEYYYWGQGTQVTVAS”, which “polyreactivity (PSR sort gate)” value is on record?
Answer: high polyreactivity

Question: For “QVQLVESGGGLVQAGGSLRLTCAASGNIFSTYAMGWYRQAPGKERELVASISENGGSTYYADSVKGRFSISRDNAKTTVYLQMNSLKPEHTAVYYCNKDYYYPNSWPKYVYWGQGTQVTLSS”, which “polyreactivity (PSR sort gate)” value is on record?
Answer: low polyreactivity

Question: Which “polyreactivity (PSR sort gate)” value does the source give for “QVQLVESGGGLVQAGGSLRLSCAASGFTFTWYAMGWYRQAPGKERELVASISRSGGSTYYADSVKGRFTISRDNAKNTVYLQMNSLKPEDTAVYYCAAEIWLEYVGYDYWGQGTQVTVSS” here?
Answer: high polyreactivity

Question: With “QVQLVESGGGLVQAGGSLRLSCAASGITFLFYARGWYRKAPGKERELVAAISSGDNTYYADSVKGRFTISRDNGKNTVYLQMKSLKPDDTAVYYCAAEKYGYDYWGQGTQVTVSS” as the sequence, how does the “polyreactivity (PSR sort gate)” value read?
Answer: low polyreactivity

Question: With “QVQLVESGGGLVQAGGSLRLSCAASGLIFYAKAMGWYRQAPGKEREFVAAITYRGGSTYYADSVKGRFTISRDKAKNTVYLQMNCLKPEATAVYYCATVTDRYPYIRRYHFPYYYWGQGTQVTVSS” as the sequence, how does the “polyreactivity (PSR sort gate)” value read?
Answer: high polyreactivity

Question: For “QVQLVESGGCLVQAGGSLRLNCAASGGTFVNNDMGWYRQAPGKERELVAAIRSAGTTYYADSVKGRFTISRDNAKNSVYLQMNSLKPVDTAVYYCNADTTGYWSYGFQYYGEDYWGQGTQVTVSS”, which “polyreactivity (PSR sort gate)” value is on record?
Answer: low polyreactivity

Question: Which “polyreactivity (PSR sort gate)” value does the source give for “QVQLVESGGGLVQAGGSIRLSCAASGRIFVRNAMGWYRQAPGKEREMVAAISWSSGGTYYADSVKGRFTISRDNAKNTVYLQMNSLKPEDTAVYYCNADPSRAGDYWGQGTQVTVSS” here?
Answer: low polyreactivity

Question: With “QVQHVESGGGLVHAGGRLRLRCAASGSTFVTNVMGWYSQEPGKEMELVAAISYSGGNTYYEDSEKGRFTISRDNAQNSVYLQMNSLKQEDTAVYYCAAAYKPFKKMGYWGQGTQVTVSS” as the sequence, how does the “polyreactivity (PSR sort gate)” value read?
Answer: high polyreactivity

Question: For “QVQLVESGGGLVQAGGSLRLSCDASGSIFSQYAMGWDRQAPGKEWELVAAITWSGGSTYYADSVMGRFTFSRDNAKNTVYLQMNSLKPEDTEVYYCAATGYYYTRSSTWYRYYYWGQGTQVTVSS”, which “polyreactivity (PSR sort gate)” value is on record?
Answer: high polyreactivity

Question: With “QVQLVESGGGLVQAGGSLRLSCAASGSIFIAYGMGWYRQEPGKERELVAAITVSGGNTYYADSVKGRFTISRDNAKNTVYLQMYSLKPEDTAVYYCADVTYWQDGHRGNYWGQGTQVTVSS” as the sequence, how does the “polyreactivity (PSR sort gate)” value read?
Answer: low polyreactivity

Question: For “QVQLQESGGGLVQAGGSLRQSYAASGYIFPSLAMGWYRQAPGKEREFVAAIGRGSTNNYEDSVKGRFTISRDNAKNTAYQQMNRLKPEDTAVYYCAAAASPLTRDLYWGQGTQVTVSS”, which “polyreactivity (PSR sort gate)” value is on record?
Answer: low polyreactivity

Question: With “QVQLVESGGGLVQAGGSLRLSCAASGRNFPAYAMGWYRQAPGKERELVASIRRGGITYADSVKGRFTISRDNAKNTVYLQMNRLKPEDSSGYFCNADFRGWGYHMDYWGQGTQVTVSS” as the sequence, how does the “polyreactivity (PSR sort gate)” value read?
Answer: low polyreactivity

Question: Which “polyreactivity (PSR sort gate)” value does the source give for “QVQLVESGGGLVQAGGSLRLSCASSGSIFPAYAMGWYRQAPGKERELVAAISSRGGSTYYADSVKGRFTISRDNAKNTVYLQMNSLKPEDTAVYYCAASRWLYYYLFEYWGQGTQVTVSS” here?
Answer: high polyreactivity

Question: With “QVKLVESGGGLVQAGGSIRLSCAASGSTFATYAMGCYRQAPGKERELVAAITSGGSTDYADSVKGRFTISRDNAKNTVYLQMNSQKPEDTAVYYCNATWVLLSYYYLFWCYDYWGQGTQVTVSS” as the sequence, how does the “polyreactivity (PSR sort gate)” value read?
Answer: low polyreactivity

Question: Which “polyreactivity (PSR sort gate)” value does the source give for “QVQLVESGGGLVQAGGSLRLSCAASDTPSSSMLMGWYRQAPGKERELVAAISGSDGTTYYADSVKVRFTISRDNAKNTVYLQMNSLKPEDTAVYYCAADDRVYSGYIKDDYWGQGTQVTVSS” here?
Answer: low polyreactivity

Question: For “HVQLVESGGGLVQAGGSLRLSCAASGSTFAGNAMGWYRQAPGKERELVAAITFSGGRTDYADSVKGRFTISRDNAKNTVYLQMNSLKPEDTAVYYCAAPADDTVHYQNYYWGQGTQVTVSS”, which “polyreactivity (PSR sort gate)” value is on record?
Answer: low polyreactivity

Question: For “QVQIVESGGGLVQAGGSLRLTCAASGGIFARYTMGWYRQAPGKERELVATITSGGGTNYADSVKGRFTISRDNAKNTVYLQMISLKPEDTAVYYCAASPRAVSYGPDDRQQYDYWGQGSQVTVSS”, which “polyreactivity (PSR sort gate)” value is on record?
Answer: low polyreactivity

Question: For “QVQLVESGGGLVQAGGSRRLSCAASGRTFYKYAMGWYRQAPGKERELVAAISGGGTTNYADSVKGRFTISRDNAKNTVYLQMNSLKPEDTAVYYCNAARTRWATGYDYWGQGTQVTVSS”, which “polyreactivity (PSR sort gate)” value is on record?
Answer: low polyreactivity

Question: With “QVQLVESGGGLVQAGGSLRLSCAASGRILYGNVMGWYRQAPGKERELVAAIDSSGATTYYADSVKGRITISRDNAKNTVYLQMNSLKPDDTAVYYCAAEVTSFSFGGDATEYYWGQGTQVTVSS” as the sequence, how does the “polyreactivity (PSR sort gate)” value read?
Answer: low polyreactivity

Question: With “QVHLVESGGGLVKAGGSLRLSCAASGISFGSNVMGLYRQAPGKERELVAAINYGGGSTYYADSVKGRFTISRDNAKNTVYLQMNSLKPEDTAVYYCAARGSRVYRYDYWGQGTQVTVSS” as the sequence, how does the “polyreactivity (PSR sort gate)” value read?
Answer: low polyreactivity

Question: With “QVQLVESGGGLVQAGGSLRISCAASGRTFLKNTMGRYRQAPGKERELVAVITRNGDSTYADSVKGRFTISRDNAKNTVYLQMNSLKPEDTAVYYCATTYRDGVYELTTFDYWGQGTQVTVSS” as the sequence, how does the “polyreactivity (PSR sort gate)” value read?
Answer: low polyreactivity

Question: With “QVQLVESGGGLVQAGGSLRLSCAASGSIFRSYAMGWYRQAPGKERELVAAITNGGSTYYADSVKGRFTISRDNAKNTVYLQINSLKPEDTAVYYCAAARYTYWFYLVKKTGYYWGQGTQVTVSS” as the sequence, how does the “polyreactivity (PSR sort gate)” value read?
Answer: high polyreactivity
